Substitutions are numbered along the chain they refer to. Each block holds one binder with its values, some of them ahead of it. Ends that are not written are not given here. * marks the point of attachment. Biotin = O=C1N[C@H]2[C@H](CS[C@H]2CCCCC(=O)*)N1; Ttds = NCCCOCCOCCOCCCNC(=O)CCC(=O)*
Target: T1, biotinylated synthetic peptide containing the PDZ-binding motif of cadherin-related 23 …
T1 peptide: {Biotin-Ttds}-VIMESPLEITEL
Assay: BLI

Kd: 37.6 ± 4.1 µM
B1: wild-type PDZ2 domain of harmonin (domain or fragment)
chain: GGLGSPGNRTTKEKKVFISLVGSRGLGCSISSGPIQKPGIFVSHVKPGSLSAEVGLETGDQIVEVNGIDFTNLDHKEAVNVLKSSRSLTISIVAGAGRE

Kd: 621 ± 88 µM
B2: variant PDZ2 domain of harmonin carrying p.Gly223Cys (domain or fragment)
chain: B1 chain with G27C
